The results in this text go back to PMC4369429.

In this assay the target is Steroid receptor coactivator 3 (SRC-3), recombinant, wild type (UniProt Q9Y6Q9). Briefly: cryo-EM structure.
Sequence of UniProt Q9Y6Q9 (Q9Y6Q9 whole entry): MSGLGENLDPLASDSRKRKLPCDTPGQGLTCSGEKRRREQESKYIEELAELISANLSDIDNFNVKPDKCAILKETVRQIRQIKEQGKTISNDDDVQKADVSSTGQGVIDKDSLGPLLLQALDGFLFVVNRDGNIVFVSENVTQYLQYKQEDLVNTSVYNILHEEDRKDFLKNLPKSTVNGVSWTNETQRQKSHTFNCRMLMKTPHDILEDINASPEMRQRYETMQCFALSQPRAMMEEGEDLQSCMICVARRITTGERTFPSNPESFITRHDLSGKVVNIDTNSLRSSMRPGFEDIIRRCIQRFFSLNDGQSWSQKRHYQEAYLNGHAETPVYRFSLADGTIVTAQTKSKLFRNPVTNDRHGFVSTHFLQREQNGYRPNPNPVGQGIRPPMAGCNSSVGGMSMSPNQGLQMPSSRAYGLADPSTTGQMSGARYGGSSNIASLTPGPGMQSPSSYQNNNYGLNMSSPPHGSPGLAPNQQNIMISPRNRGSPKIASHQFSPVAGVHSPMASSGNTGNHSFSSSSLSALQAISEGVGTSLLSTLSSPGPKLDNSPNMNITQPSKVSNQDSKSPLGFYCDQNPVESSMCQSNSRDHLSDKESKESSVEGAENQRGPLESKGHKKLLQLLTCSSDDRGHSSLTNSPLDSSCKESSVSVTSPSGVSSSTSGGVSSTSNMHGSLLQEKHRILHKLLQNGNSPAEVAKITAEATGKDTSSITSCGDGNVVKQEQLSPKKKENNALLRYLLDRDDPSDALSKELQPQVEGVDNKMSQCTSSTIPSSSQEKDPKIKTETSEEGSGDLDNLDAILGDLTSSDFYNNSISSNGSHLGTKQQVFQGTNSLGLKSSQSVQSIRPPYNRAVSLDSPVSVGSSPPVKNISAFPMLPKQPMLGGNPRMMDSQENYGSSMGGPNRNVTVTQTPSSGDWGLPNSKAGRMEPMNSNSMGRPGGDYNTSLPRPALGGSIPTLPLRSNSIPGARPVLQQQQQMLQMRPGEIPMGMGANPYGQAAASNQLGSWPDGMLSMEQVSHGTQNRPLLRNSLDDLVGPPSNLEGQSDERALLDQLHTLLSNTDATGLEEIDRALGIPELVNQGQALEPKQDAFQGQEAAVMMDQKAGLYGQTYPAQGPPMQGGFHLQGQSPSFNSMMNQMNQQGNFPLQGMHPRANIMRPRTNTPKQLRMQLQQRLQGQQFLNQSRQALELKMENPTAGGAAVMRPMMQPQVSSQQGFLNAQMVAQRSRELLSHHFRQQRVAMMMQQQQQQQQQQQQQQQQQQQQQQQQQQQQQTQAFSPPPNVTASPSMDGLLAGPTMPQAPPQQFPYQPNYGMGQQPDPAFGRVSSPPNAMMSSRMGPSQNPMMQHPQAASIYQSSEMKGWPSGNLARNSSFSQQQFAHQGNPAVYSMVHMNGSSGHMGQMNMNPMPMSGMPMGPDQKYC

As to p300, recombinant, Q09472 1-2414, the stoichiometry N (p300 molecule per two SRC-3) was 1.
